# From patent US20230192860A1 (Bristol-Myers Squibb, published 2023)
# Columns and labels:
# hVISTA-ECD 6-His tag [1] = biological target: T1, hVISTA-ECD 6-His tag (human, UniProt Q9H7M9 33-193); experiment: SPR, Ab on Protein A, hVISTA analyte, pH 6.9
# T1 construct: also called monovalent hVISTA-ECD; human VISTA
# Outline: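 Antibodies at 50 nM in PBST pH 7.4 were captured on a Protein A CM5 chip; an 8-point human VISTA titration (100 to 7.8 nM) in PBST at pH 7.4, 6.9, 6.45 or 6.0 was injected for 180 seconds at 30 µL/min. Kinetic constants came from 1:1 binding fits of sensorgrams.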
# hVISTA-ECD 6-His tag [2] = biological target: T1, hVISTA-ECD 6-His tag; experiment: SPR; kd at pH 6.45 over kd at pH 6.0 (head prints 7.4)
# Experimental: (§1) Further binding kinetic experiments were performed at various pHs on VISTA antibodies described herein by SPR as generally described in Example 9 above. Antibodies were normalized to 50 nM concentration in PBST pH 7.4 and captured on a Protein A CM5 chip (ID 4931) by injecting for 45 seconds at a 5 µL/min flow rate. An 8-point human VISTA titration ([…]) was prepared in PBST at pH 7.4, 6.9, 6.45, and 6.0. Titrations were injected over the captured antibodies for 180 seconds at 30 µL/min. Sensorgrams were fit to a 1:1 binding model in T200 evaluation software and the kinetic constants were reported.
# (§2) Each table reports the data at one of the four tested pHs (7.4, 6.9, 6.45, and 6.0, respectively). The 8-point hVISTA titration used in these assays was chosen to provide increased confidence in kinetic values reported at neutral pH conditions. A relatively stringent cutoff for non-binding was applied in this assay. Certain progeny of P1-061029 antibody (P1-068757, ‘759, ‘765, ‘771, and ‘775) show no binding to hVISTA at micromolar concentrations at pH 7.4, while ‘761 and ‘767 show no binding to hVISTA at 100 nM at pH 7.4 but do show binding to hVISTA at micromolar concentrations.
# hVISTA-ECD 6-His tag [3] = biological target: T1, hVISTA-ECD 6-His tag; experiment: SPR; kd at pH 6.9 over kd at pH 6.0 (head prints 7.4)
# Experimental: as §1, §2
# hVISTA-ECD 6-His tag [4] = biological target: T1, hVISTA-ECD 6-His tag; experiment: SPR 37 C, Ab on Protein A, pH 7.4
# hVISTA-ECD 6-His tag [5] = biological target: T1, hVISTA-ECD 6-His tag; experiment: SPR; KD at pH 6.45 over KD at pH 6.0 (head prints 7.4)
# hVISTA-ECD 6-His tag [6] = biological target: T1, hVISTA-ECD 6-His tag; experiment: SPR, Ab on Protein A, hVISTA analyte, pH 6.45
# hVISTA-ECD 6-His tag [7] = biological target: T1, hVISTA-ECD 6-His tag; experiment: SPR 37 C, Ab on Protein A, pH 6.0
# hVISTA-ECD 6-His tag [8] = biological target: T1, hVISTA-ECD 6-His tag; experiment: SPR; KD at pH 6.9 over KD at pH 6.0 (head prints 7.4)
# Experimental: as §1, §2
# hVISTA-ECD 6-His tag [9] = biological target: T1, hVISTA-ECD 6-His tag; experiment: SPR, Ab on Protein A, hVISTA analyte, pH 6.0
# T1 sequence (Q9H7M9 other isoform, or with tags, fused parts or gaps limits assumed): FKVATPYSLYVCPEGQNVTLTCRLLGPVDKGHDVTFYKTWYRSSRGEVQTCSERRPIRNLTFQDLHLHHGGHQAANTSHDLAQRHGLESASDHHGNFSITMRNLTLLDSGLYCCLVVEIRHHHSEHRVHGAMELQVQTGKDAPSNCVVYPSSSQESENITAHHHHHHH
Binder,Kd (hVISTA-ECD 6-His tag [1]) [nM],koff (hVISTA-ECD 6-His tag [1]) [s⁻¹],kon (hVISTA-ECD 6-His tag [1]) [M⁻¹ s⁻¹],7.4 kd/ 6.0 kd (hVISTA-ECD 6-His tag [2]),7.4 kd/ 6.0 kd (hVISTA-ECD 6-His tag [3]),Kd (hVISTA-ECD 6-His tag [4]) [nM],koff (hVISTA-ECD 6-His tag [4]) [s⁻¹],kon (hVISTA-ECD 6-His tag [4]) [M⁻¹ s⁻¹],7.4 KD/ 6.0 KD (hVISTA-ECD 6-His tag [5]),Kd (hVISTA-ECD 6-His tag [6]) [nM],koff (hVISTA-ECD 6-His tag [6]) [s⁻¹],kon (hVISTA-ECD 6-His tag [6]) [M⁻¹ s⁻¹],Kd (hVISTA-ECD 6-His tag [7]) [nM],koff (hVISTA-ECD 6-His tag [7]) [s⁻¹],kon (hVISTA-ECD 6-His tag [7]) [M⁻¹ s⁻¹],7.4 KD/ 6.0 KD (hVISTA-ECD 6-His tag [8]),Kd (hVISTA-ECD 6-His tag [9]) [nM],koff (hVISTA-ECD 6-His tag [9]) [s⁻¹],kon (hVISTA-ECD 6-His tag [9]) [M⁻¹ s⁻¹]
"P1-061015 (antibody, human IgG1, kappa, V domains shown, also called P1-061015.IgG1.3) VH: not shown VL: EIVLTQSPATLSLSPGERATLSCRASQSVSSSYLAWYQQKPGQAPRLLIYDASNRATGIPARFSGSGSGTDFTLTISSLEPEDFATYYCQQYNSYPYTFGQGTKLEIKR",3.19,0.00133,417000,1,0.9,6.4,0.0022,340000,2.9,1.83,0.00147,803000,1.9,0.0016,830000,5.1,0.622,0.00154,2.47e+06
"P1-068744 (antibody, human IgG1, kappa, V domains shown, also called P1-068744-7) VH: QVQLVESGGGVVQPGRSLRLSCAASGFTFSEYAMHWVRQAPGKGLEWVAHIWYDGSNKYEADSVKGRFTISRDNSKNTLYLQMNSLRAEDTAVYYCARDSGFYESYYFDEWGQGTLVTVSS VL: EIVLTQSPATLSLSPGERATLSCRASQSVSSSYLAWYQQKPGQAPRLLIYDASNRATGIPARFSGSGSGTDFTLTISSLEPEDFATYYCQQYNSYPYTFGQGTKLEIKR",4800,0.034,7100,3.2,7.9,1100,0.036,35000,12.6,64,0.014,220000,20,0.0046,230000,958,5.1,0.0043,860000
"P1-068748 (antibody, human IgG1, kappa, V domains shown, also called P1-068748-6) VH: QVQLVESGGGVVQPGRSLRLSCAASGFTFSHHAMHWVRQAPGKGLEWVAIIWYDGSNDDYADSVKGRFTISRDNSKNTLYLQMNSLRAEDTAVYYCARDSGFYDSYYFDYWGQGTLVTVSS VL: EIVLTQSPATLSLSPGERATLSCRASQSVSSSYLAWYQQKPGQAPRLLIYDASNRATGIPARFSGSGSGTDFTLTISSLEPEDFATYYCQQYNSYPYTFGQGTKLEIKR",220,0.018,82000,3.4,4.8,,,,4.1,18,0.012,680000,,,,50,4.3,0.0036,840000
"P1-061520 (41F11 VK_A64G) (antibody, V domains shown, also called P1-061520-21; VISTA.4.A64G) VH: QVQLVESGGGLVKPGGSLRLSCAASGFTFSDYYMSWIRQAPGKGLEWVSYISNSGSPIYYADSVKGRFTISRDNAKNSLYLQMNSLRAEDTAVYYCARDLPGWYFDLWGRGTLVTVSS VL: EIVLTQSPATLSLSPGERATLSCRASQSVSSYLAWYQQKPGQAPRLLIYDASNRATGIPARFSGSGSGTDFTLTISSLEPEDFAVYYCQQRNNWPRTFGQGTKVEIK",2.15,0.00139,646000,0.2,0,,,,0.3,5.69,0.00554,975000,,,,0.1,16.8,0.0323,1.93e+06
"P1-070976 (41F11_VH_T28P_Y50W_S55E_D95H_L96E_P97E_Y100E; Vk_A64G) (antibody, V domains shown, They look like Kabat positions on the mature VH, but no numbering scheme is stated; also called P1-070976-11) VH: QVQLVESGGGLVKPGGSLRLSCAASGFPFSDYYMSWIRQAPGKGLEWVSWISNSGEPIYYADSVKGRFTISRDNAKNSLYLQMNSLRAEDTAVYYCARHEEGWEFDLWGRGTLVTVSS VL: EIVLTQSPATLSLSPGERATLSCRASQSVSSYLAWYQQKPGQAPRLLIYDASNRATGIPARFSGSGSGTDFTLTISSLEPEDFAVYYCQQRNNWPRTFGQGTKVEIK",970,0.01,11000,1.7,4.4,,,,4.4,44,0.0039,90000,,,,98.2,9.9,0.0023,240000
"P1-070922 (P1-068767_E30D_E55A) (antibody, human IgG1, kappa, V domains shown, also called P1-070922-3) VH: EVQLVESGGGLVQPGKSLRLSCAASGFTLDDYAMHWVRQAPGKGLEWVSGIDWNSANIGYADSVKGRFTISRDNAKNSLYLQMNSLRTEDTALYYCAKVPGYSGGWIDAEDDWGQGTMVTVSS VL: not shown",790,0.014,18000,1.7,3.4,,,,4.4,76,0.007,93000,,,,45.9,17,0.004,230000
